T1: monkey Trop2 on CHO-K1 cells (monkey, UniProt A0A2K5UE71 27-323)
T1 construct: also called CHO-K1/monkey Trop2
T1 sequence: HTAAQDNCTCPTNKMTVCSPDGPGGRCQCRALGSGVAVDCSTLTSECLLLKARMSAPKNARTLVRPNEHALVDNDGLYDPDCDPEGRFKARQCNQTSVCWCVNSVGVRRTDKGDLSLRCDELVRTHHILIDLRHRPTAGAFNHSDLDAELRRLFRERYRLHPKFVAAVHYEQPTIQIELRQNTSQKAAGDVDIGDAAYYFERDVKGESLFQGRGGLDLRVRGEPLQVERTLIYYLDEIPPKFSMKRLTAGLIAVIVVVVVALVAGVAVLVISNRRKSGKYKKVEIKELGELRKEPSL

T2: mouse Trop2-his protein (Sino Biological, #50922-M08H) (mouse, UniProt Q8BGV3 25-270)
T2 construct: bought protein; also called mouse Trop2 protein; not shown: his tag
T2 sequence (looked up): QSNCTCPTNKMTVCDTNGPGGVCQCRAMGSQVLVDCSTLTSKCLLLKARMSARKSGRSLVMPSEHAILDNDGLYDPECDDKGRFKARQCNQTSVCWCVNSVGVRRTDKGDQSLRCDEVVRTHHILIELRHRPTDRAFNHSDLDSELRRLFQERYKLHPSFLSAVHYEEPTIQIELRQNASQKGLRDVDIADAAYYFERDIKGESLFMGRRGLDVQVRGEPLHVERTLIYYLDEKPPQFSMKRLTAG

T3: human TROP2 protein (Sino Biological, #10428-H08H) (human, UniProt P09758 27-274)
T3 construct: bought protein; also called human Trop2 protein antigen (His tag); not shown: His tag
T3 sequence (looked up): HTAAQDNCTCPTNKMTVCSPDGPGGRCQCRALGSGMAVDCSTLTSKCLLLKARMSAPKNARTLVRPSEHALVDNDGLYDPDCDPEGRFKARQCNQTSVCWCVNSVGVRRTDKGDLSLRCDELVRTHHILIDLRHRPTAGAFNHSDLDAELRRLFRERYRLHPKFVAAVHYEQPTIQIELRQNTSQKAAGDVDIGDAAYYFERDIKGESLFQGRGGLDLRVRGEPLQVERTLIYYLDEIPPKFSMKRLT

T4: monkey Trop2 protein (Sino Biological, #90893-C08H) (monkey, UniProt A0A2K5UE71 27-274)
T4 construct: bought protein; also called monkey Trop2 protein antigen (His tag)
T4 sequence: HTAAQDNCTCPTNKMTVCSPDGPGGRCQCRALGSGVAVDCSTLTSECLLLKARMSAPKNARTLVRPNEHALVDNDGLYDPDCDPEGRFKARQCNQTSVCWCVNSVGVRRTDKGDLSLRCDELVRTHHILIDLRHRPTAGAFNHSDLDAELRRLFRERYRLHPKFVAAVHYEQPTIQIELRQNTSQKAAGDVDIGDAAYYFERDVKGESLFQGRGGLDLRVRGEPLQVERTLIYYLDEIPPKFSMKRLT


Assays:
[1] = biological target: T1, monkey Trop2 on CHO-K1 cells; assay: flow cytometry on CHO-K1/monkey Trop2 cells
Description: CHO-K1/monkey Trop2 cells (Chempartner, Shanghai, China) and CHO-K1 blast cells were each digested with 3 mL of TrypLE, and the digestion was stopped with 7 mL of the corresponding medium. […] The cell solution was centrifuged, and the cells were washed once with PBS+0.5% BSA. […] The cells were washed once with PBS+0.5% BSA. The cells were incubated at 4° C. for 1 h in the dark with 100 μL of Alexa Fluor 488 goat anti-human IgG (Life technologies, #A-11013) diluted at 1:1000, and washed twice with PBS+0.5% BSA. The cells were resuspended in 200 μL of PBS+0.5% BSA. The suspension was centrifuged at 4° C. for 5 min at 2000 rpm and tested using a FACS verse flow cytometer or NovoCyte flow cytometer (ACEA Biosciences). All procedures were performed on ice.

[2] = biological target: T2, mouse Trop2-his protein (Sino …); assay: ELISA, plate coated with mouse Trop2-his protein, anti-human IgG (H+L)-HRP, OD450 nm
Description: An ELISA plate was coated with 100 μL of 1 μg/mL mouse Trop2-his protein (Sino Biological, #50922-M08H) in PBS at 4° C. overnight. The plate was blocked with 200 μL of PBST (PBS+0.05% tween 20)+2% BSA at 37° C. for 1 h. The plate was washed 4 times with PBST. 100 μL of Trop2 antibody diluted in a gradient (5-fold dilution, starting concentration: 33.33 nM) was added to the ELISA plate and the plate was incubated at 37° C. for 1 h. The plate was washed 4 times with PBST. 100 μL of anti-human IgG (H+L)-HRP (Sigma, #A8667) diluted in 1:4000 was added and the plate was incubated at 37° C. for 1 h. The plate was washed 4 times with PBST. 100 μL of TMB substrate (Invitrogen, #88-7025-88) was added and the plate was incubated at room temperature for 5 min, and then 50 μL of stop buffer (BBI life sciences, #E661006-0200) was added to stop the reaction. The OD450 nm reading was recorded using a microplate reader (Perkin Elmer, EnSpire).

[3] = biological target: T3, human TROP2 protein (Sino Biological, …); assay: BLI, Octet RED96, AHC sensor
Description: (§1) Specifically, a human TROP2 protein (Sino Biological, #10428-H08H) or a monkey Trop2 protein (Sino Biological, #90893-C08H) was diluted to 200 nM with a PBS buffer (pH 7.4) containing 0.1% (w/w) BSA and 0.02% (v/v) tween 20, and incubated with the AHC sensor respectively. 40 nM Trop2 antibody was incubated at 30° C. for 3 min with the AHC sensor loaded with the human Trop2 protein or monkey Trop2 protein respectively. The reaction mixture was incubated at 30° C. for another 5 min in a PBS buffer (pH 7.4) containing 0.1% (v/w) BSA and 0.02% (v/v) Tween 20. The association and dissociation signals between the Trop2 antibody and the human Trop2 protein or monkey Trop2 protein were recorded by Octet Red 96 in real time. The affinity and the association and dissociation constants were determined by Octet using software.

[4] = biological target: T4, monkey Trop2 protein (Sino Biological, …); assay: BLI, Octet RED96, AHC sensor
Description: as §1

EC50 [1]	Maximum MFI value [1]	binding result [2]	Kd [3]	Response [3]	koff [3]	kon [3]	Kd [4]	Response [4]	koff [4]	kon [4]	fold lower KD than the reference antibody Tab (hRS7) [3]	Binder
1.97 nM	51500 MFI	binds	< 0.001 nM	0.324	< 1e-07 s⁻¹	470000 M⁻¹ s⁻¹	< 0.001 nM	0.322	< 1e-07 s⁻¹	316000 M⁻¹ s⁻¹	–	PR001166 (antibody, human IgG1, kappa, V domains shown, fully human IgG1/kappa; also called antibody No. (27)) VH: QVQLQESGPGLVKPSETLSLTCAVSGYSISSGYFWAWIRQPPGKGLEWIGSIYHSGRTHYNPSLKSRVIISLDTSKNQFSLKLRSVTAADSAVYYCAREGYASGSYYWGQGTLVTVSS VL: EIVMTQSPATLSVSPGERATLSCRSSQSVNNYLAWFQQKPGQAPRLLIYDSSTRATGIPARFSGSGSGTEFTLTISSLQSEDFAFYFCQQYENWPLTFGGGTKVEIKR
3.33 nM	46400 MFI	binds	4.79 nM	0.336	0.000426 s⁻¹	89000 M⁻¹ s⁻¹	7.75 nM	0.328	0.000528 s⁻¹	68100 M⁻¹ s⁻¹	–	PR001139 (antibody, human IgG1, kappa, V domains shown, fully human IgG1/kappa; also called antibody No. (8)) VH: QVQLVESGGGVVQPGRSLRLSCAASGFTFSSFGMQWVRQGPGKGLEWVAVMWFDGSNKYYVDSVKGRFTISRDNSKNTLYLQMNSLRAEDTAVYYCARLDFSGWPLIDYWGQGTLVTVSS VL: not shown
2.87 nM	55300 MFI	no binding	1.1 nM	0.386	9.72e-05 s⁻¹	88500 M⁻¹ s⁻¹	2.49 nM	0.369	0.000149 s⁻¹	59800 M⁻¹ s⁻¹	–	PR001133 (antibody, human IgG1, kappa, V domains shown, fully human IgG1/kappa; also called antibody No. (5)) VH: QVNLVESGGGVVQPGRSLKLSCAASGFTFSSYGMHWVRQAPGKGLEWVALIWSDGTNRYYTESVKGRFTISRDNSKNTLSLQMKSLRAEDTAVYYCAKDGWGTYGEYFQHWGQGTLVTVSS VL: DIQMTQSPSSLSASVGDRVTITCRASQNINSYLHWYQQKPGKAPKLLIYAASSLQSGVPSRFSGSGSGTDFTLTISSLQPEDFAIYYCQQSYSIPPITFGQGTRLEIKR
2.57 nM	53200 MFI	no binding	< 0.001 nM	0.402	< 1e-07 s⁻¹	130000 M⁻¹ s⁻¹	< 0.001 nM	0.384	< 1e-07 s⁻¹	83500 M⁻¹ s⁻¹	–	PR001128 (antibody, human IgG1, kappa, V domains shown, fully human IgG1/kappa; also called antibody No. (1)) VH: QVQLQESGPGLVKPSGTLSLTCAVSGGSISSSNWWSWVRQPPGKGLEWIGEIFHSGTTYYNPSLKSRVTILVDKSKNQFSLKLSSVTAADTAVYYCARDNTKSWDHFDHWGQGTLVTVSS VL: EIVLTQSPATLSLSPGERATLSCRASQSVGSYLAWYQQKPGQAPSLLIYDASNRATGIPARFSGSGSGTDFTLTISSLEPEDFAVYYCQQRTNWYTFGQGTKLEIKR
6.26 nM	61700 MFI	no binding	< 0.001 nM	0.357	< 1e-07 s⁻¹	55200 M⁻¹ s⁻¹	< 0.001 nM	0.315	< 1e-07 s⁻¹	37700 M⁻¹ s⁻¹	–	PR001130 (antibody, human IgG1, kappa, V domains shown, fully human IgG1/kappa; also called antibody No. (2)) VH: QVQLQESGPGLVKPSGTLSLTCAVSGDSISSHNWWSWVRQPPGKGLEWIGEIYHSGITSYNPSLKSRVTISVDKSKNQFSLKLNSVTAADTAMYYCARGSGVISYFDYWGQGTLVTVSS VL: DIQMTQSPSTLSASVGDRVTITCRASQSIGNWLAWYQQKPGKAPKLLIYKASSLESGVPSRFSGSGSGTEFTLTISSLQPDDFATYYCQQYDSYSPITFGQGTRLEIKR
2.1 nM	51200 MFI	no binding	0.323 nM	0.39	8.78e-05 s⁻¹	272000 M⁻¹ s⁻¹	0.26 nM	0.382	4.29e-05 s⁻¹	165000 M⁻¹ s⁻¹	–	PR001142 (antibody, human IgG1, kappa, V domains shown, fully human IgG1/kappa; also called antibody No. (9)) VH: QVQLQESGPGLVKPSGTLSLTCAVSGDSISSNNWWSWVRQPPGKGLEWIGEIYPGGNPNYNPSLKSRVTISVDKSKNQFSLKLNSVTAADTAVYYCARGSGVISYFDYWGQGTLVTVSS VL: DIQMTQSPSTLSASVGDRVTITCRASQSIGHWLAWYQQKPGKAPKLLIYKASSLESGVPSRFRGSGSGTEFTLTISSLQPDDFATYYCQQYSSYSPITFGQGSRLEIKR
2.13 nM	53100 MFI	–	0.199 nM	0.349	–	–	0.137 nM	0.322	–	–	–	comparative example 2 antibody Tab (hRS7) (antibody, human IgG1, kappa, V domains shown, prepared on the basis of sacituzumab govitecan (ChemPartner, #T07-001); naked antibody) VH: QVQLQQSGSELKKPGASVKVSCKASGYTFTNYGMNWVKQAPGQGLKWMGWINTYTGEPTYTDDFKGRFAFSLDTSVSTAYLQISSLKADDTAVYFCARGGFGSSYWYFDVWGQGSLVTVSS VL: DIQLTQSPSSLSASVGDRVSITCKASQDVSIAVAWYQQKPGKAPKLLIYSASYRYTGVPDRFSGSGSGTDFTLTISSLQPEDFAVYYCQQHYITPLTFGAGTKVEIKR
–	–	no binding	< 0.001 nM	0.38	< 1e-07 s⁻¹	164000 M⁻¹ s⁻¹	0.26 nM	0.393	2.62e-05 s⁻¹	101000 M⁻¹ s⁻¹	~10 fold	PR001165 (antibody, human IgG1, kappa, V domains shown, fully human IgG1/kappa; also called antibody No. (26)) VH: QVQLVESGGGVVQPGRSLRLSCEASGFTFSHYGMHWVRQAPGKGLEWVAVIWYDGIKTYYVESVKGRFTISRDNSKNTLNLQMNRLRAEDTAVYYCARDGGFGESNYYGLDVWGQGTTVTVSS VL: DIQLTQSPSFLSASVGDRVTITCRASQGISSYLGWYQQKPGKAPKLLIYIASTLQSGVPSRFSGSGSGTEFTLTISSLQPEDFATYYCQQLNSYPYTFGQGTKLEIKR
